From the supplement of paper PMC9170038

Tested on: MS2 coat protein
Experiment: apparent KD of MS2 coat protein; designed switch direction (-1 OFF switch, 1 ON switch): -1; higher = weaker reporter binding
Summary of the method: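 Designed RNA switches with common flanks were made on Illumina chips by stalled E. coli RNA polymerase. Titration with SNAP-549-labelled MS2 coat protein doubled from 0.7 or 1.5 nM up to 3 µM. Apparent KD is each design's median over clusters after curve-fitting normalised fluorescence.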

[1] = Eterna round: R95, input ligand: FMN 200 uM
[2] = Eterna round: R95, input ligand: microRNA oligo, concentration not stated
[3] = Eterna round: R95, input ligand: none
[4] = input ligand: microRNA oligo, concentration not stated

Row | Sequence | apparent KD of MS2 coat protein (input ligand: FMN 200 uM) [µM] | apparent KD of MS2 coat protein (input ligand: none) [µM] | apparent KD of MS2 coat protein [1] [µM] | apparent KD of MS2 coat protein [2] [µM] | apparent KD of MS2 coat protein [3] [µM] | apparent KD of MS2 coat protein [4] [µM]
1 | UUUUAGUAAGGAUAUGAUUAGAUCUACUUCGGUAGAUCUAAUCAGAAGGUACAUGAGGAUCACCCAUGUAGAUU [Mod of Brourd 2 - Jieux - Exclusion 4] (Eterna round: R97, puzzle: Exclusion 4) | 0.0241 | 0.0188 |  |  |  | 
2 | GGCCCUAGGGUCAGACGCACAAGCUUUUUGCUCGUUUUAACAUGAGGAUCACCCAUGUCUAGUGGAUCUGAUCGGGU [Mausinonra] (puzzle: Sensor v3, turn-off variant 2) |  |  | 0.0206 | 0.111 | 0.0185 | 
3 | CGGCAAUCCUAGGAUAUGCUAGACGAUAGUCUAGCAGAAGGAGGAACAUGAGGAUCACCCAUGUGUCCUAGCCG [Mat - Exclusion 6 - Eli Mod - D14] (Eterna round: R97, puzzle: Exclusion 6) | 0.0178 | 0.0144 |  |  |  | 
4 | CUGAGGUAGCGGUCCUAUAACAUGAGGAUCACCCAUGUACCUUGCUUCGAGCUUUUAGCUCGUCUUAUGAUUCUCGG [Mat - Sensor v3 - turn-off var 1 - JL Mod - D37] (puzzle: Sensor v3, turn-off variant 1) |  |  | 0.443 | 0.502 | 0.56 | 
5 | CUUUUGUGAGGAUAUCAGUAGUUAAAUAAUAAAAUUACUACUGAGAAGGCACAUGAGGAUCACCCAUGUUCCUC [Mat - Exclusion 4 - Mod of Salish - D70] (puzzle: Exclusion 4) |  |  |  | 0.0355 |  | 
6 | GAUUGAGAGCAGGAUAUAUUCCUGAUGUAUGAAGUAGAAGGGCUCACAUGAGGAUCACCCAUGUGAUCCUGAAA [Mat - Exclusion 6 - Eli Mod - D3] (Eterna round: R97, puzzle: Exclusion 6) | 0.0138 | 0.014 |  |  |  | 
7 | AGGGCUGCUCAGGAUAUCCGUAAAAGCCGAGAAGGAGAAGGGAGCACAUGAGGAUCACCCAUGUGAUCCGAAAA [Verila] (puzzle: Exclusion 6) |  |  |  | 0.0197 |  | 
8 | UAGCACGGAGGAUAUUGGCUCGCACACAUGAGGAUCACCCAUGUGACUUUAUACUUCCGCUAAGAAGGCCGUGUGG [Eternabot (L1) Solution 93] (Eterna round: R97, puzzle: Exclusion 5) | 0.0132 | 0.0143 |  |  |  | 
9 | UUUUUAUAUGAAGGAUAUACUUAACAUGAGGAUCACCCAUGUGGUGUUGUGAGUGAGUGAGUUUAGUAGAAGGUCAAUGAUUGU [JMF's solution 60] (Eterna round: R96, puzzle: Exclusion NG 2) | 0.918 | 0.369 |  |  |  | 0.216
10 | GAGUGACAUGAGGAUCACCCAUGUAAGGAUAUACGGUUGGUAGAGAGAGGGAGAAAGGGUAGAAGGUACGAAGG [JR_Exclu1_Sub053] (puzzle: Exclusion 1) |  |  | 0.0455 | 0.0441 | 0.101 | 
11 | ACAUGAGGAUCACCCAUGUCUGGCUGGUCCGCUCCGGCUGUUGAGGAUAUAGUUCGGUGUCCGCGCUAGAAGGUGAGGGCUGGC [Aenatbe mod 35] (Eterna round: R96, puzzle: Exclusion NG 3) | 0.0218 | 0.0313 |  |  |  | 0.0212
12 | UAUGGUUAAGUCAGGAUAUACGUACAGAUAUCUGAGUAGAAGGGACAUGAGGAUCACCCAUGUAUGGUAGUGUU [Ex4 #53] (Eterna round: R97, puzzle: Brourd's mod of Exclusion 4) | 0.187 | 0.0648 |  |  |  | 
13 | UUCCUGUCAGGAUAUGACUAGAUGCACGAAAGUGUGUUUAGUUAGAAGGGACAUGAGGAUCACCCAUGUAGUCC [Bring Us a Shrubbery-18] (puzzle: Exclusion 4) |  |  |  | 0.0209 |  | 
14 | UUUGAAUAAGUGAGGAUAUACUGUUAGUAUUGAUUGUAGAAGGUACAUGAGGAUCACCCAUGUUUAGUAUUUAU [JR_BME4_Sub038] (puzzle: Brourd's mod of Exclusion 4) |  |  |  | 0.0156 |  | 
15 | AGGUAGUCAGGAUAUUAAGAGUAGCGGGAUAACGCUACGAGUGAGAAGGGACAUGAGGAUCACCCAUGUUUUAA [JR_Ex4_Sub071] (Eterna round: R97, puzzle: Exclusion 4) | 0.0234 | 0.0232 |  |  |  | 
16 | AAACCUAUAGGAUAUACAUGAGGAUCACCCAUGUUGCGAUUUUUUAGGUAACAGAUCCGUAGAAGGGUAGGUUA [Anzaoror] (puzzle: Exclusion 3) |  |  |  | 0.0244 |  | 
17 | ACAUGUGUUGUAGGAUAUAGGAUACAUGAGGAUCACCCAUGUGGAUUCAUGUCUAUGGAAACGUCCUAGAAGGACGACAACAUG [Ex NG2 #21] (Eterna round: R96, puzzle: Exclusion NG 2) | 0.12 | 0.0905 |  |  |  | 0.056
18 | GUGGGCUUUUAGGUUCUUAACAUGAGGAUCACCCAUGUGCUUGUCUUGCUGGCUGGCGGGUCGUCGGUCGGGCUUGU (Eterna round: R97, puzzle: Sensor, turn-off variant 1) | 0.489 | 0.584 |  |  |  | 

Row | Sequence | apparent KD of MS2 coat protein (input ligand: FMN 200 uM) [µM] | apparent KD of MS2 coat protein (input ligand: none) [µM] | apparent KD of MS2 coat protein [1] [µM] | apparent KD of MS2 coat protein [2] [µM] | apparent KD of MS2 coat protein [3] [µM] | apparent KD of MS2 coat protein [4] [µM]
19 | ACAAGCUUUUUGUUCGUCUUAUAAUAAUAAAUAAAUAUAACAUGAGGAUCACCCAUGUUGAGAAGACGGCCUCAUGU [Sesor Array 22 - Jieux - Sensor v3, turn-off variant 2] (puzzle: Sensor v3, turn-off variant 2) |  |  | 0.134 | 0.0318 | 0.203 | 
20 | UGCCUACAUGAGGAUCACCCAUGUGAGGAUAUCCUGCGAGGAUCAAAAGAUCCUCGUGGGAGAAGGCACAUGAA [Omei Ex1 B1] (Eterna round: R97, puzzle: Exclusion 1) | 0.146 | 0.0385 |  |  |  | 
21 | AAUUAUUUUUGAGGAUAUGGUGGUGAAACACCACCAGAAGGCGGAAUAAACAUGAGGAUCACCCAUGUGAGCCUGAUGCUUAUG [Ex NG1 #47] (Eterna round: R96, puzzle: Exclusion NG 1) |  |  |  |  |  | 0.0175
22 | CAACGUGAGCAGGAUAUACAGAGGGAGACCUGGGUAGAAGGGCUCACAUGAGGAUCACCCAUGUUAGCCAAAGA [Eternabot (Original) Solution 47] (Eterna round: R97, puzzle: Exclusion 6) | 0.0333 | 0.0188 |  |  |  | 
23 | ACGUAUAGAGGAUAUACUGAAUAUUACAUGAGGAUCACCCAUGUUCUUCAAAGUAUAUUUGUAGAAGGCUAAUGAA [EX-5 Malc#9] (puzzle: Exclusion 5) |  |  | 0.0158 | 0.0102 | 0.00961 | 
24 | GUUACUAUUGUGAGGAUAUACUUAUUAAUAAAUAGGUAGAAGGCACAUGAGGAUCACCCAUGUUUUAACUUUUC [lam1] (Eterna round: R97, puzzle: Brourd's mod of Exclusion 4) | 0.0968 | 0.0249 |  |  |  | 
25 | UGCAGACGAGGAUAUAGAUUUAGAUACAUGAGGAUCACCCAUGUAUAGAUGUAUUUAGAUUUAGAAGGCGUCUGCA [E5/13-A1] (Eterna round: R97, puzzle: Exclusion 5) | 0.401 | 0.305 |  |  |  | 
26 | UUUAAUUUUUUUUUUUUACAAGCUUUUUGCUCGUCUUAUACAUGAGGAUCACCCAUGUGGAUGGGAAGUAAAUUAUC [JMF 52] (puzzle: Sensor v3, turn-off variant 2) |  |  | 0.0239 | 0.0592 | 0.0209 | 
27 | CUUAGCCUAAAAUCACGCAAGCUUUUUGCUUGUCUUAAGACAUGAGGAUCACCCAUGUCCGGGCUGAACUUAUGUAA [Laantiusan] (puzzle: Sensor v3, turn-off variant 2) |  |  | 0.0227 | 0.0309 | 0.0264 | 
28 | UCGGCGCGAGGAUAUGCGGUUGCUUGGUAGGGUCGUGGCGUACAUGAGGAUCACCCAUGUAGAAGGCGCGCCGC [Apr-15 SS2-32*] (puzzle: Exclusion 2) |  |  |  | 0.0155 |  | 
29 | AGUGUGUUAGGAUAUCGGAUAUGCUGGAGGAGGUGGAUUUACGAGAAGGAACAUGAGGAUCACCCAUGUAGGAG [JR_Exclu4_Sub048] (puzzle: Exclusion 4) |  |  |  | 0.0362 |  | 
30 | GCAGAAAGUGUAGGAUAUAUAAUAAAGCGGAAACGCAAGACAUGAGGAUCACCCAUGUGUCCGGAAUAGAAGGGCAAAAGCUGC [EXNG2 V2 b] (Eterna round: R96, puzzle: Exclusion NG 2) | 0.0291 | 0.0294 |  |  |  | 0.0199
31 | CACCGUUAUGGAGGAUAUCGUACAUGAGGAUCACCCAUGUAAUAAAUGAGAAUUUCGGAUGUAUGCGAGAAGGCCAAAAUCGGC [Ostracism 43 - Jieux - Exclusion NG 2] (Eterna round: R96, puzzle: Exclusion NG 2) | 0.0466 | 0.0435 |  |  |  | 0.0269
32 | GGCCGAGAACAGCUCCGCGCUGCCCUCAGCCGCUCAUUUACAUGAGGAUCACCCAUGUUUUUUGCUUGUCUUGUUUC [Antibe] (puzzle: Sensor v3, turn-off variant 2) |  |  | 0.0203 | 0.104 | 0.0223 | 
33 | CUAAAAGUCGAGGAUAUGCACCGUUUCGCUGACGCAGAAGGCGACACAUGAGGAUCACCCAUGUCGGUACGCGA [salish99_ex6_r004_456] (Eterna round: R97, puzzle: Exclusion 6) | 0.0277 | 0.0235 |  |  |  | 
34 | CAAAGAUAAGGAUAUUGAAGGUUCGACAUGAGGAUCACCCAUGUUAUGUUGGAAAAGGGACAAGAAGGUAUGAAAA [salish99_ex5_r4_214] (Eterna round: R97, puzzle: Exclusion 5) | 0.0315 | 0.0393 |  |  |  | 
35 | AUAUAUAGUGUGAGGAUAUGCUGGUCCUUGGAUCAGCAGAAGGCACAUGAGGAUCACCCAUGUAGUUUAUUUUU [Mat - Exclusion 4 - JL Mod - D5] (puzzle: Brourd's mod of Exclusion 4) |  |  |  | 0.0262 |  | 
